The target in the assay is Taxol-stabilized microtubules (polymerized purified tubulin) (UniProt P02550). Kind of assay: Taxol-stabilized microtubule co-sedimentation assay. The settings on record: 3:1 MT:MAP1S LC ratio; MAP1S LC pre-incubated with CDKL5 (WT according to the lane labels of panel E; the key of panel F prints CDKL5 KD); n = 3 technical …; parent: est. 13; read off a plot.

Take “Strep(II)-MAP1S LC WT (microtubule-associated protein 1S light chain) (from UniProt P0C5W1) S786A; S812A”: the other: Soluble MAP1S LC (%) was found to be 4.2%.

The record behind these values is PMC6293278.
